One data set concerns C[C@H](N)c1ccccc1. In words: purified protein. The format is biochemical, Pseudomonas putida. Particulars: 20 mM pyruvate, 2 mM PLP, 50 mM HEPES pH 8.0, 30 °C, (S)-MBA 0-5 mM.
The term Km denotes the substrate concentration at which the rate is half of its maximum. Usually Vmax stands for the rate approached at saturating substrate. By kcat is commonly meant the maximal rate divided by the concentration of active sites. In general, kcat/Km refers to the second-order rate constant that governs catalysis at low substrate concentration. For TA_2799 (Pseudomonas putida KT2440), the Michaelis constant (Km) came to 6459 ± 621 µM, the Vmax is 0.104 µmol/min/mg, the kcat came out at 0.072 ± 0.00465 s⁻¹ and the kcat/Km came to 11.1 M⁻¹ s⁻¹.

As to “TA_2799 (Pseudomonas putida KT2440; C324Y/L322F)”, the Km worked out at 1188 ± 122 µM and the catalytic constant (kcat) worked out at 0.02302 ± 0.000817 s⁻¹.

TA_5182 (Pseudomonas putida KT2440): the Km was found to be 1089 ± 117 µM, the Vmax was found to be 0.007 µmol/min/mg, the kcat worked out at 0.0049 ± 0.000117 s⁻¹ and the kcat/Km worked out at 4.48 M⁻¹ s⁻¹.

Regarding “TA_5182 (Pseudomonas putida KT2440; G119N)”, the Km worked out at 347 ± 24 µM, the maximum rate (Vmax) was determined as 0.003 µmol/min/mg, the kcat was found to be 0.00245 ± 3.33e-05 s⁻¹ and the kcat/Km stood at 7.05 M⁻¹ s⁻¹.

“TA_2799 (Pseudomonas putida KT2440; L322F)”: the Km worked out at 1068 ± 566 µM, the maximal velocity (Vmax) was found to be 0.042 µmol/min/mg, the catalytic constant (kcat) was found to be 0.0296 ± 0.0006 s⁻¹ and the kcat/Km was determined as 27.7 M⁻¹ s⁻¹.

The target of the next data set is T1, TA_2799 (Pseudomonas putida, UniProt Q88J50).
T1 construct: gene PP_2799; pET43.1b, 6xHis tag, expressed in E. coli BL21 (DE3), Ni-NTA; homodimer; catalytic K286
In words: X-ray crystal structure, […] Å. In kind it is binding. Particulars: covalent; internal aldimine with catalytic K286.
As for `Cc1ncc(COP(=O)(O)O)c(C=O)c1O` [PLP], the “X-ray crystal structure, 1.76 Å” value is listed as “covalently bound internal aldimine form of the PLP bound to the catalytic K286 residue”.
